According to the domain aggregation screens of Martell et al. (2025):

Assay: soluble fraction after stress (log2 fold change); higher = more stays soluble; pooled small domains, quantitative proteomics
Conditions: stress: 75 degC
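Note: 20 min heating vs room temperature control held 20 min.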

Sequence | soluble fraction (log2)
HMILKQTHIVQELTGPIRLQEYGVGIFQQISTKSALKKALKKNQITVDGVVGSTATFIKGGEIIIYHVTE | -2.67
HMILNDRSELLDVVKRVIAANPASVADYRKGKKKVLGFLVGQAMKETKGQADPRILNELFLQELGEN | 0.108
HMILNNAKINTELNSLAEFTQRSLDSNTSEIGFYDYKKISYIASFATMKTTNWNVIIRAPINEFMGTVN | 0.126
HMILQTLSERVTETLRDWILHGHFKPGDKIEEVPIAERMGVSRTPVRAAFATLTNEGLIDHQPNRGYQVRV | -0.496
HMILSTNFFRHIVPKEYQTSYGTMKKWLTDHNVIGTNSIPQGIGYRIPTQGLSSTFSFKVVDVLPDR | -0.986
HMIMDQTILRKQRELTDRLNRYRNEYYNHNKPSVSDEVYDRLFDELQSLEKETGVQMANSPTTTVG | -0.0853
HMIMGTITKRTNPSGAIVYRAQIRIKKAGYPDFSESRTFSKKAMAVEWLKLREAELEMHPELLFR | -2.35
HMIMHLNQIIRNKRLAAGLTQEALAQKVGVTAPAVSKWEKGISYPDITLLPILARNLNTDVNTLLDFSA | -1.29
HMIMNLNVLANNVRRLRTAQRLSQSALASKAGLSVPAIKNLENARNEPRVNTVQVIAHALEVRLQDLFAPT | -1.81
HMIMTEKEKKLLNRYIMHDTIHKLYHEQNKSMRWIADNLGINFRTVQKYLDMDSGEFQKYSESISNR | -0.97
HMIMTIYEYIARNNPTGAKRVIESFGYVVTQPKKMGDNLRMLVAQEGEPALKAVVDLHPDKDLILEV | -2.69
HMINAQETEIYRFLIEKANRLYSMVLGLKREELMTATRQFEEEVKHSSIHHLPKIYQAFSSYLELLERG | -1.2
HMINDKLQHLFSLFPAMDKELKRKGITRQILWVEYKKQYPLGFGRSQFNSYFAAWKAQVSPS | -1.98
HMINFLSKREIEVLRLVADGLSNRDVGQYLFISESTVKRHLSTIYEKLAVKSRTQAIDHARRADL | -3.6
HMINGTITFYDDTTLKGELSSLDTKYLFIIPNGLVMPEKIAVSDIEYFNLDNGITLIQDGISKQTY | -1.09
HMINLGDLEVGHTYHTRMPILQNDLKYSHKSPIQIVAEHSIVYGVRVYIGFLNEHRVLVTADDV | 0.0105
HMINLRTALNNAGVMQKELSDILYMTPQDVNRRFSGVTKWKPLEKRAIMQFLEDRGFEYTEEQLF | -0.564
HMINLVPFELKFITAQVLDDIIKKIGINADTIILDINPKKIWVYAGEQELSDIQNIVKNVDVEDNI | -1.71
HMINVLTPKQIEATTIAVKYGYYENPRTVSMRELSEISGIARSTLQEHLSKAEAALMILAAKSQL | -0.365
HMINVVDEVIKHLETNIISGFWAPGQKIDSEATLSKQLNVSRASIHTAIQQLIATGVLESFQGKGTFVRS | -0.305
HMIPDGKWKEDPISDGQKNFINSLIEQAIDAGQDELGAEAKKYLASGEATKGNASAMIDKLKSAL | 0.39
HMIPDMSLELAMSEQTSKGDLYGDLPNDKLALMFNAISKKVPHTDDHKRKMVAIQTILESRAS | -0.415
HMIPEGKWMEDPISEGQIKFIETLIKQAIDSGQDALGAEAKQYLSSGEATKGNASSMIDKLKDAL | 0.433
HMIPEILNGYTKWGDDEPFEDHAGPFYMKMMPSTGRHLSAFIPEQRHMNGGGFLHGGMLMSFADYALFVI | 0.244
HMIPEKEISYMMPDGFMPKELKIIHITESGRKQIYSAAHKPLDLVNVKAPFVPNTKVQIYINDVPIEELKI | -1.01
HMIPKDKQAWIALTYIYGVGRTTSMEILKKAQVGEEIRMKDLTEEEVTRIRNIIDKEYEVEGDLRRN | -0.252

Sequence | soluble fraction (log2)
HMIPNEKEAARWDALTAEHTAKLNALEGDALDKVGSHEDVSIKRAGVGDAAFREKILSRTHPDDLERALST | -0.0132
HMIQHFARKRRQLELAVQRLSGRMAETNGQVTADMQRLIQQVKALVAELSHVFSRAYLRRVLGGVALVIGS | -0.597
HMIQLTDAEFNELVTYIKKNYGINLIKKRLLIEARMYSVLAKHGFTSFTEYINLIKRDPAELNTMLNKLTT | -3.26
HMIQMRVKVPKNIAGGSLMGAHHFVKSALARTNPGGSTSNYKIQATDGTPLTLGDLTARQYDEVLIISG | -0.668
HMIQTKKVTFTVEPTVNFEKINISGIEFKINSGSSITAIYEKNSHNFDEVLDFLKQKGVKILDIVTED | -0.251
HMIRILIVDDSAFMRKLLSDVFEEDKNFVVVDTARNGQDAVEKVKRLKPDLVTMDVEMPVMDGLTAVEIIM | -0.453
HMIRSNLAEQAYAQLKALIHDFQLLPGDRFSENEMGTRLGVSRTPVREALFRLRNEGFLEVESKAGWYVK | -3.04
HMISAADLQTYLKGMDYPAGREDLVAHAQRNNAPESVITILQGFSDRTYRSAAEVSEEFGRE | 0.495
HMISADSSKVDTLVQVYSNMKPIQAAQVFEKMDEDLVIEILSRMKKKNAADILNLIKTEKAQVFAEKYA | -0.109
HMISAEPVGEDLFKVAFPFLGGSTVFEKTIEQFIEEHPSKRIDHIYTVPNPLRLKKADALIFYIITEEK | -1.07
HMISASDLQTYLKGMDYPARKEDLIVHAQRNNAPESVIAAIRQFSDRTYQSAADVSEEFGKI | 0.602
HMISDEELLVSTKKEIMSLATVLTKTDKKDDAIAIMKEYDPAANPNRIKDVNKAKELLERLQKLG | -0.225
HMISDISEIEAIIVEVLKVFPNQLQEYLDGKEKILSFFVGQVMQRTKGRANPSLVNEILKEKIKN | -1.22
HMISEAEGTILQLLKEADGTLPFTYKSDADEIKKVFGMSKKNFKRTLTELIEAKKIQLLDDAIVL | -0.632
HMISEKEIKIIEDILARWNGKLTWDDFTSKVAKKLNLPSLSKFTLMGYPEIKQAFLTRKQTLK | -0.53
HMISENFVEAKILLTEDNRPKSLEILKDIIRQHDKVYSPLSLFLILDEDLEENKEIILEYFDLVLS | -0.327
HMISESLLDEIPGLGETRRNSLLREFGSVAMIRKASAEEIASRVRGIGAEFAAAIHDFLQTH | -0.446
HMISFHEYLTQLLDEKGLTKAQVITDSNIQKNYGYQIFDGSKTPSRDKVIAIALAMQLTLDEANRLLHLSN | -1.75
HMISFTDLEHIEKMIENVLYTKTPLNLPPTDAKIRKIEHQIARRYGLNSESFGDEPRRFVVVYPNEERE | -0.907
HMISKAQLFSEEELTELYRATGYQLENDPEIHREQFEALQAVRAKIEYAVPDVQEKLEQEQNLGQQ | 0.512
HMISKRFQVDEENSNNRVDIFLANNLDSISRGIVQQLILDGKVLVNGETVKRNHLLKTNDEVDISFEI | 0.349
HMISRDPYDAGAIKRHFSASGLFSSKELAHYLGKSVSTAKNVLSDLQQQGIVEMVGQGPATKYRFI | 0.772
HMISSRDAAVIGLVENIQRAQLNAIDESSGFKHLMETYNLESKEIALLVGKSRSYVSNSLRLSK | 0.124
HMISTVFYVDVKGEVHHPGVYQMKAENRVKDLIEAAGGFTPLADDQKLNLAQLLEDQMVIVVPKKGEEV | 0.243
HMISVTNRTGTGLNDVKVEVFPVGRQMVFSATVFRVESEATNRFSLGELRGSDGTPFNQRVHRPESI | -0.184
HMITAEQENILFEKASDDISNNIINKGIWTKAYSQAGGDESKQKAIYIDLLVNYYKMLIKAGEEFEDI | -2.42

Sequence | soluble fraction (log2)
HMITALLPGTVLIREFDGRDYHVTVATDGRFEMDGHKYPSLSAVAKHITGTQWSGPAFFGLN | -1.06
HMITASNYFIEVERIGIETLPETLKKGHDLVVKSTSNGTNWANYQTSEGIKKVIDLYFQKLNEYANTV | -1.83
HMITDSSEIEAMVDALVKENPGQAEQYKDGNMKVAGWFIGQIMKVSKGKANPQLVGDLLKKKLG | 0.197
HMITERVPVPDLTGMPLMEAIKTLNSSKLQYQVVGSVIEGDENRIIDQTPKPDIMVSEKSIVLLYLETYRG | -2.6
HMITIDADTGKRVYTRKEVADLVGASTQSIRLWEDAGAIPASVRDEGGYRYWYEEDLEAIKAYAS | -0.203
HMITKAIELAEEAEKETVWLGVWEHNHPAQKFYQSLGFVKTDEHDFYMGNERHTDYTMTKQLK | -0.344
HMITLKKRRQEAILEIIEKYDLSTQDELLQKLKDSGFDATQATVSRDIKELRLVKTMGANGQYKYAVT | -0.881
HMITMADKIDTALSEMAANNEKINVSQVAKRLGISNSAIYKFNPEKIPDIQTAQKRQKHKAEAIAVGTEN | -0.0393
HMITMWYYKKDGNIIGPASARKIASMRELGIITDSTPVSRKRNAKNWETFGGLSEKINLESSQWD | -1.98
HMITNEDINIKKLLVVMKDTPLSANEIMDKLNIKSKETLRNMYLDPAIKKGLINLTIPDKPTSKNQKYYK | -0.426
HMITNESEIERIVEAIISKNPESIAQYRSGITKVLGFLVGQVMKETKGRANPALVNRIIISKME | -0.899
HMITSELALVKLVVKGANRVEALRVAETFRARALDVTLSSFVFELTGKPSKLDAFIGLMRSLGDTEILKR | -4.17
HMIVEIVPSALHGERVDRIVAFILDVSRSVASGLVERGAVHVDGSVETSGKVRLVEGQEVSVDPSQVPG | -0.69
HMIVNEQEQTFIKAMRDDDFNTILELKMKGYQPSDNVLKSLQPDISSTTFIAAAKIFQMERMLK | -0.502
HMIVSVPNVRGMGESKAAAALQNRGLLVSIDYESSTSASQGEVIRQSISPGTEVTKGSSITIIIAVSPN | -1.56
HMIVVMQPGATKEQVQAVIDRVAEFGFQTKLAPGAERMVIGVVGSPLPDTLKEALERLPGVEEVIRVSKR | -0.379
HMIVVTSPQVTDERIAEIVAFIEKHGVQAHVSRGTDRTVIGIIGKADPVLAEHLRSMQGVENVIKIS | -0.167
HMIYKLTLLRDLPEAKAGFDFYLRGGLASHDGEEWFSWVTREPIYARLYWLYVEKREEWVLVEETDI | -4.51
HMIYMIDPNDEIAVKLDEIYQRYLNRTIDPEGLIFFYNQIRNAQMGYSDVEKRILESPEYVSIPK | -0.53
HMIYQNVINLLKNRLNSSIYNIGDLLPSEKELAEHYDVSRNTLRKALKTLEEEGMIERRHGSGTYLRNK | -1.67
HMIYWGTMVDKIYEVLSLAGKPLSLMEIYQQVKVFFPNSTKSSIEASMRLDARHRFKYDVEGHVYSLVD | -3.44
HMIYYTEEELVKRYIDFSNYLGKKEGASDVDFKKYAVEFGIPSRDHYNRKFITLFNLKIKAGYKPIRH | -0.835
HMKAAQDQDQAATLLQKATGVNQDQAKLAATVLFKEQSVTPIRQAIASGDYYQAYQDAKSLQQQ | 0.221
HMKADIEQVQRAFDTLDPKNQQLVLDAMKAATAELDPNSDQFKTNTEFINDNQKALDRHAKAS | 0.122
HMKAGAVFNEGDVLYPKIGGLKLMAAAGEGGKVVATLAKTDEMIYMGEEQSGFVKVESGSGSGWVKKILVA | 0.438
